Experimental data: US6461867

Target: SEV-9 peptide (Sendai virus nucleoprotein 324-332) (Sendai virus)

B1: soluble H-2K^b (K^bsol), empty heterodimer of truncated K^b heavy chain and murine β-2 microglobulin (other)
alpha: GPHSLRYFVTAVSRPGLGEPRYMEVGYVDDTEFVRFDSDAENPRYEPRARWMEQEGPEYWERETQKAKGNEQSFRVDLRTLLGYYNQSKGGSHTIQVISGCEVGSDGRLLRGYQQYAYDGCDYIALNEDLKTWTAADMAALITKHKWEQAGEAERLRAYLEGTCVEWLRRYLKNGNATLLRTDSPKAHVTHHSRPEDKVTLRCWALGFYPADITLTWQLNGEELIQDMELVETRPAGDGTFQKWASVVVPLGKEQYYTCHVYHQGLPEPLTLRW
beta: IQKTPQIQVYSRHPPENGKPNILNCYVTQFHPPHIEIQMLKNGKKIPKVEMSDMSFSKDWSFYILAHTEFTPTETDTYACRVKHASMAEPKTVYWDRDM
  Kd: 2.7 nM
